Earlier results, collected in patent publication US20110020368A1, “TREATING CANCER BY DOWN-REGULATING FRIZZLED-4 AND/OR FRIZZLED-1” (priority 2008, published 2011).

System: breast tumor cell lines
Conditions: interference with autocrine WNT pathway activation

B1: sFRP1: extracellular inhibitor of WNT signaling, which competes with FZD receptors for ligand binding (protein, UniProt Q8N474 32-314, looked up)
Secreted frizzled-related …: SEYDYVSFQSDIGPYQSGRFYTKPPQCVDIPADLRLCHNVGYKKMVLPNLLEHETMAEVKQQASSWVPLLNKNCHAGTQVFLCSLFAPVCLDRPIYPCRWLCEAVRDSCEPVMQFFGFYWPEMLKCDKFPEGDVCIAMTPPNATEASKPQGTTVCPPCDNELKSEAIIEHLCASEFALRMKIKEVKKENGDKKIVPKKKKPLKLGPIKKKDLKKLVLYLKNGADCPCHQLDNLSHHFLIMGRKVKSQYLLTAIHKWDKKNKEFKNFMKKMKNHECPTFQSVFK
- Effect on proliferation of breast tumor cell lines: blocks proliferation
